The values below come from a protein production outcome set (Wang et al. 2014).

The nature of this data set: label from the status in PepcDB records.
On to “PGGPEEQWQRAIHERGEAVCPTCNVVTRKTLVGLKKHMEVCQKLQDALKCQHCRKQFKSKAGLNYHTMAEHSAKPSDAEASEGGE”, for which the protein production result is “not failed”.
As for “PGMLYEFCLKPDGTMTFPYVSSGCLELIECSPQELQDDASLTFASTYPEDIIGLQEAIANSAKTLQNFEHEWRIITSSGQLKWVKGASRPERKPGGEITWYGYLLDVSEQQAALRERKQADQQLQQQAQLLQSIWEGVD”, the entry is “failed”; as for “PIKQSFLLKRSGNSLNKEWKKKYVTLSSNGFLLYHPSINDYIHSTHGKEMDLLRTTVKVPGKRPPRAISAFGPSASINGLVKDMSTVQMGEGLEATTPMPSPSPSPSSLQPPPDQTSKHLL”, “failed”; as for “PKAPVTGYVRFLNERREQIRTRHPDLPFPEITKMLGAEWSKLQPAEKQRYLDEAEKEKQQYLKELWAYQQSEAYKVCTE”, “not failed”.
As for “PKIAGIDLGTTYSSIGIYHAVTGETIILPDDLGKKSVPSVVAFLPNGTVLIGTRATEQQEHNPKRTIYDAKRFIGRNFEKNNKDFLSDQKRYPFKINLDSEGKAFFEIPLDSGTKNVYPEEIGSLIIGYLKSAAAKHLGVTLGQVVISCPAEFNEKQRNFTAKAAEIAEMEVRRVISEPTAAALAYGLHKKQGVENVVVVDLGGGTLDVSVLWLQGGVFVTQAMAGNNRLGGQDFNDRVQKHLISKIAEKFGKTIDNKEDIQQIRMEVEKGKIRLTNVPSTTISLNLKTVGKWNYELTRDEFETLNGDLLKAIELPITAALADANLDTADVDEIVLVGGSTQVPAVRKIVGRFFKKSANYGVDPELAVVTGASVQAGVIGGGWPLQVAAMELPAKRRKRHFFTEEQKENEKDRTISEL”, the protein production result is listed as “not failed”.
Under “PKTGPTMTKELVFSSNIGQHDLDTKSKQIQQWIEKKYHVQVTIKRRKDAEQSEEETEEIFNQILQTMPDIATFSSRPKAIRGGTASMCVFRHLSKKEEK” stands “not failed”; under “PLAGTITEADVRRYAASCCVQGVTTITDLHNDLADPTIEVYRSATSQADFGVRLVPALAAVSHTPEQAIAKLETLRGHASDKLHYGIVKLVVDGSIQGFTARLRWPGYHNGAANGLWYIAPEELPRLVEAYHRAGVQLHIHTNGDEATEVALDAIEAAQTVAPRPDHRHTLQHCQMASAAQFRRMKNLGVCANLFANHLYYWGDAHYELTMGPERAARLDATGTAQRIGVPFAIHSDAPVTPLAPLFTAWCAVNRVSSSGRVLGRDTEALTTEQALAAITIGAAYTLKMDHLVGSIETGKYADFVVLDEDPLAVPPERLKEIAVWGTVVGG”, “failed”; under “PLLTEEALFGEDRHVLGEKGVVVRVFSDFQCPYCQRLAREVLPALKAMAREGRLRLAYRHFPLYEIHPEAVPAAVASECAAAQGAFWAYHDLLMAGSGWDYPALARRLGLDPKAFQACLEDPASRAPVEADRALAERLGLPGTPSVFVGPFRLPNPFDLERYRDYLALAEAL”, “failed”.
For the sequence “PLNRLGHKIYQHSGKWLQETAAEKLNQRDQLINPGHAQVLILGMGRIGTGAYDELRARYGKISLGIEIREEAAQQHRSEGRNVISGDATDPDFWERILDTGHVKLVLLAMPHHQGNQTALEQLQRRNYKGQIAAIAEYPDQLEGLLESGVDAAFNIYSEAGSGFARHVCKQLEPQFTSIK”, the protein production entry was “not failed”.
Under “PLPPPRALTLAAVTPRTVHLTWQPSAGATHYLVRCSPASPKGEEEEREVQVGRPEVLLDGLEPGRDYEVSVQSLRGPEGSEARGIRARTPT” stands “not failed”; under “PLQFHSVHGDNIRISRDGTLARRFESFCRAITFSARPVRINERICVKFAEISNNWNGGIRFGFTSNDPVTLEGTLPKYACPDLTNRPGFWAKALHEQYCEKDNILYYYVNGAGDVIYGINNEEKGVILTGIDTRSLLWTVIDIYGNCTGIEFLDSRIYMYQ”, “not failed”; under “PMVLVVLDHDGNRLKKGSLEALTRARDLAQALGGKVAGVLLAEEKAPVEEARKYVEVLYTATLGPYTAEKWAAGVLKAAEASGAKAVVAPSSRQSRAYLGRVAYALRAGLLEDTLESRVEGGEVHATRYAYLNRVTQRVKAALPVVLTVKPNTTPLAEPLPGEAEAVALSVPEVPTVEVLERLQEEKKGVS”, “failed”.
“PPKIRVVVRKRPISKKERERGDDDVVDVLAKNNTVVVNEEKVKVDLTKYLEKHAFKFDESLDENVSNEAVYQLTVGPLVRTLFRNGRASCFAYGQTGSGKTYTMSPLPIRASADIFTFMAQQQYRDISLCVSCFEIYGNKVFDLLNARKKLNILEDGKKKVVVVGLKEFGVDDVDGVKALIEESAKNRSTGSTAANADSSRSHSIMQFALKRAA”: the protein production result is recorded as “failed”.
As for “PPLPLVYERIMLKGKGAMHSSTGLAIPASEIIDVMPPELLRFLIARVNPSRHIDFDP”, the entry is “failed”; as for “PQKKVIVLVHGLASSPEAWIALTNDIMGDNILREHYQVWQVFYSTNMPILESRFQIYALLKQAFDSLNPNDPADHNAVLIGHSMGGIISRLLVSQADISQKAFSLVSPYQQAQLKKQPMVYQRLKIQPIPNFDRAIFMSAPHHGTDFADLWFTRAARKIIKLPGAFLGAITDTVTNENIDAKDLLLRIDQGLIQNGPSDLSYKSKFIELTKNINPPSGFVFHSIIGNNTKSDDPEKITDGIVPYKSAHLEGSASEKIIQGGHSIQETPQAVLELRRILRLHLKEHQ”, “failed”; as for “PRFLFVHGWGFDRNFWEPVRRAIGQHNGDSLDFGYFGQSKLEYDWSQPFIAVGHSLGFLWLLQQPLAACIQLISINGFSRFFAGSDWPFGVPQRVTKRMQLALHRDAKKTLDQFYETVGFFDTSEKRYDLAALDNGLEFLMTQDNRSIAKKQAHKIAIMASDQDPIVPVSLTKACFPTPTPILWNKDGGHLLPITDPDSCANFIRDVVK”, “failed”.
Regarding “PRTVKELTVSAGDNLIITLPDNEVELKAFVAPAPPVETTYNYEWNLISHPTDYQGEIKQGHKQTLNLSQLSVGLYVFKVTVSSENAFGEGFVNVTVKPAR”, the protein production result is “not failed”.
Regarding “PVVVSEAGASVYSASEAAAREFPDMDVSLRGAVSIARRLQDPLAELVKIDPKAIGVGQYQHDVNQTALAKTLDAVVEDAVNAVGVDLNTASVPLLARVAGVSPTIAENIVHYRDEHGAFVNRTALKKVPRLGPKAFEQCAGFLRISGGKDPLDASAVHPEAYPVVRKMSEATGLSVEKLIGNSHVLSSLRPSDFA”, the protein production result is “failed”.
As for “QDISQRKKEQEALAESESRFQELADLLPQPVFELDMKGNIIYTNSLGFQAFGYTKDDLEKGVSSLALFVPEDRETVLQNIENRLKNIPFENHEYTALRKDGTTFPILIYTARINRGGVPVGIRGIVLDITDRKQAEENLVQLNQNLELRVEERTRELEVTHQQMILQEKLASIGQLAAGIAHELNNPINFVRINFATLQEDVSDLHTLLKEYRLVTEKLEDR”, the entry is “failed”; as for “QDSDSTAAVAVLKRAVELDAESRYQQALVCYQEGIDMLLQVLKGTKESSKRCVLRTKISGYMDRAENIKKYLDQEKEDGK”, “not failed”; as for “QDVPVTQVMTPRPVVFRVDATMTINEFLDKHKDTPFSRPLVYSEQKDNIIGFVHRLELFKMQQSGSGQKQLGAVMRPIQVVLNNTALPKVFDQMMTHRLQLALVVDEYGTVLGLVTLEDIFEHLVGE”, “not failed”.
Under “QEGIISLDTEGRVVLMNPKAEEMTGRSQNESCGLPIEDVFILWSPLQDKNQLVAINQCLAEGRHTLLPEGSQLLSSQGERQEIRCSASPIRDRDNLLTGAVVVFQDVTRARHEQRELQYQANHDMLTGLINRRRLEERLNQAISQLGQDEQHILCYVDLDYFKDVNDSAG” stands “failed”; under “QEIRPMPADSAYGVVHISVCNMRDEGKFTSGMSTQALLGMPVKVLQYTGWYEIQTPDDYTGWVHRMVITPMSKEKYDEWNRAEKIVVTSHYGFTYEKPDDDSQTVSDVVAGNRLKWEGSKGHFYKVSYPDGRQAYISRHISQPESKWRASLKQDAESIIKTAYTMIGIPYLWAGTSSKGVDCSGLVRTVLFMHDIIIPRDASQQAYVGERIEIAPDFSNVQRGDLVFFGRKATADRKEGISHVGIYLGNKRFIHALGDVHISSFDPEDECYDEFNTGRLLFATRFLPYINKEKGMNTTDHNLYYLHH”, “not failed”.
